Where a chain is given by its changes, count along the chain named. Names may count otherwise.
B1: Dipeptidyl peptidase III, wild type (enzyme, human, UniProt Q9NY33 1-737, looked up)
chain: MADTQYILPNDIGVSSLDCREAFRLLSPTERLYAYHLSRAAWYGGLAVLLQTSPEAPYIYALLSRLFRAQDPDQLRQHALAEGLTEEEYQAFLVYAAGVYSNMGNYKSFGDTKFVPNLPKEKLERVILGSEAAQQHPEEVRGLWQTCGELMFSLEPRLRHLGLGKEGITTYFSGNCTMEDAKLAQDFLDSQNLSAYNTRLFKEVDGEGKPYYEVRLASVLGSEPSLDSEVTSKLKSYEFRGSPFQVTRGDYAPILQKVVEQLEKAKAYAANSHQGQMLAQYIESFTQGSIEAHKRGSRFWIQDKGPIVESYIGFIESYRDPFGSRGEFEGFVAVVNKAMSAKFERLVASAEQLLKELPWPPTFEKDKFLTPDFTSLDVLTFAGSGIPAGINIPNYDDLRQTEGFKNVSLGNVLAVAYATQREKLTFLEEDDKDLYILWKGPSFDVQVGLHELLGHGSGKLFVQDEKGAFNFDQETVINPETGEQIQSWYRSGETWDSKFSTIASSYEECRAESVGLYLCLHPQVLEIFGFEGADAEDVIYVNWLNMVRAGLLALEFYTPEAFNWRQAHMQARFVILRVLLEAGEGLVTITPTTGSDGRPDARVRLDRSKIRSVGKPALERFLRRLQVLKSTGDVAGGRALYEGYATVTDAPPECFLTLRDTVLLRKESRKLIVQPNTRLEGSDVQLLEYEASAAGLIRSFSERFPEDGPELEEILTQLATADARFWKGPSEAPSGQA
notes: Dipeptidyl peptidase III (DPP III, EC 3.4.14.4), human, wild type, cloned into pLATE31; also called DPP III; WT DPP III; source: E. coli BL21-(DE3)-RIL+, purified (Ni-NTA agarose)
B2: DPP III T481M variant (enzyme, human, UniProt Q9NY33 1-737, looked up)
chain: B1 chain with T481M
notes: source: E. coli BL21-(DE3)-RIL+, purified (Ni-NTA agarose)
B3: DPP III R638W variant (enzyme, human, UniProt Q9NY33 1-737, looked up)
chain: B1 chain with R638W
notes: as for B2
B4: DPP III R510W variant (enzyme, human, UniProt Q9NY33 1-737, looked up)
chain: B1 chain with R510W
notes: as for B2
B5: DPP III Q484H variant (enzyme, human, UniProt Q9NY33 1-737, looked up)
chain: B1 chain with Q484H
notes: as for B2
B6: DPP III G482C variant (enzyme, human, UniProt Q9NY33 1-737, looked up)
chain: B1 chain with G482C
notes: as for B2
B7: DPP III E480Q variant (enzyme, human, UniProt Q9NY33 1-737, looked up)
chain: B1 chain with E480Q
notes: as for B2
B8: DPP III R703C variant (enzyme, human, UniProt Q9NY33 1-737, looked up)
chain: B1 chain with R703C
notes: as for B2
B9: DPP III R638L variant (enzyme, human, UniProt Q9NY33 1-737, looked up)
chain: B1 chain with R638L
notes: as for B2
B10: DPP III E451K variant (enzyme, human, UniProt Q9NY33 1-737, looked up)
chain: B1 chain with E451K
notes: as for B2
B11: DPP III P479S variant (enzyme, human, UniProt Q9NY33 1-737, looked up)
chain: B1 chain with P479S
notes: as for B2

The binders below were run against T1, Kelch domain of KEAP1 protein (UniProt Q14145 321-609, fluorescently labeled with RED-MALEIMIDE (Cysteine reactive) fluorescent dye) (assay: MST; Kelch domain labeled with RED-MALEIMIDE, 50 nM; DPP III or variant added; binding-induced fluorescence change on Monolith NT.115; 25 °C; 50 mM Tris, 100 mM NaCl, pH 8.2, 0.05% Tween; triplicate). Conditions: both partners purified.
T1 construct: Kelch domain of KEAP1 (Kelch-like ECH associated protein 1); plasmid pET15b with Kelch insert, gift of Mark Hannink; also called Kelch-like ECH associated protein 1 (Kelch domain); source: E. coli BL21-(DE3)-RIL+, purified (Ni-NTA agarose)
T1 sequence (Q14145 321-609): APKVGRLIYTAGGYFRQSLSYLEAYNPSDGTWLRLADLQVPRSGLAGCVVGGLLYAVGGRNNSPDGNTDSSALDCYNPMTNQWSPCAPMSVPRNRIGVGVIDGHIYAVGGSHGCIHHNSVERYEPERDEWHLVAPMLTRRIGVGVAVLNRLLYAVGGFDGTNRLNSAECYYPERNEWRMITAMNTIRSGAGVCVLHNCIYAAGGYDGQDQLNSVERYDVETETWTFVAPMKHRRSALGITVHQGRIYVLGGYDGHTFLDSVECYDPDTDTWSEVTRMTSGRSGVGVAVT

Row | Kd(WT)/Kd(mut) | Binder
1 | 1 | B1
2 | 0.1 | B2
3 | 2 | B3
4 | 0.3 | B4
5 | 2.1 | B5
6 | 0.8 | B6
7 | 0.1 | B7
8 | 1.7 | B8
9 | 2 | B9
10 | 2.1 | B10
11 | 18.4 | B11

Source: publication PMC8878202, “Interdisciplinary Study of the Effects of Dipeptidyl-Peptidase III Cancer Mutations on the KEAP1-NRF2 Signaling Pathway” (International Journal of Molecular Sciences, 2022)
